This passage reports protein stability index results from the supplement of paper PMC10567573.

± gives the standard deviation.

The nature of this data set: protein stability index of a GFP-peptide fusion (GPS, HEK-293T) (PSI 1-6); higher = more stable. The conditions noted are these: c terminus: a fixed tail appended.
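Note: 24-mer peptide tiles fused after GFP, lentivirally expressed, FACS-sorted into six equal bins by GFP/DsRed ratio, decoded by Illumina sequencing, PSI is the read-weighted mean bin number.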

Turning to SGRLSASWEPLSGPSTPSPVAAQF [FCHO1], the protein stability index amounted to 3.14 ± 0.25 (treatment: DMSO) and 3.02 ± 0.23 (treatment: MLN4924 1 uM, 8 h).

In the case of LKKIKEKDKENKFLCVLMSDWFNF [CLK3], the protein stability index runs as follows: (treatment: DMSO) 2.14 ± 0.36; (treatment: MLN4924 1 uM, 8 h) 2.24 ± 0.24.

On to NAGTGLVINQADVRNNRSIIKQLK [PLD5], for which the protein stability index by setting is: (treatment: DMSO) 3.88 ± 0.27; (treatment: MLN4924 1 uM, 8 h) 3.84 ± 0.11.

As to RFPLDSAQDPDVGTNTVSFYTLSP [PCDHGC5], the protein stability index turned out to be 3.68 ± 0.15 (treatment: DMSO) and 3.88 ± 0.12 (treatment: MLN4924 1 uM, 8 h).

Take MLDSALRFQAMEETHLRHMKALLG [FCHO1]: the protein stability index (treatment: DMSO) came out at 2.23 ± 0.37 and the protein stability index (treatment: MLN4924 1 uM, 8 h) was determined as 2.33 ± 0.25.

On to WATIEGLVELLQPFKQVAEMLSAS [ZBED1], for which the protein stability index runs as follows: (treatment: DMSO) 3.01 ± 0.76; (treatment: MLN4924 1 uM, 8 h) 2.94 ± 0.8.

Consider PLHELITMNRRVCVLMLLAAWIGG [OR4A15], for which the protein stability index came out at 2.84 ± 0.27 (treatment: DMSO) and 2.92 ± 0.26 (treatment: MLN4924 1 uM, 8 h).

Take IAGNKCDLIDVREVMERDAKDYAD [RAB22A]: the protein stability index reads like this: (treatment: DMSO) 4.98 ± 0.22; (treatment: MLN4924 1 uM, 8 h) 5.06 ± 0.11.

As to QARAELTAQHQRRLAAIAQEKDQE [FBF1], the protein stability index reads like this: (treatment: DMSO) 5.43 ± 0.23; (treatment: MLN4924 1 uM, 8 h) 5.2 ± 0.49.

KGGLVWDENSSDGRYVKENCKPLK [CLK3]: the protein stability index was determined as 4.53 ± 0.098 (treatment: DMSO) and 4.82 ± 0.12 (treatment: MLN4924 1 uM, 8 h).

As for KPFVSVFRHLRLQYIISDLASARI [GMCL1], the protein stability index worked out at 3.07 ± 0.69 (treatment: DMSO) and 2.78 ± 0.85 (treatment: MLN4924 1 uM, 8 h).

On to PLRNDVDKRGETTSASLLNAGLSH [SLC2A12], for which the protein stability index was determined as 4.55 ± 0.32 (treatment: DMSO) and 4.66 ± 0.22 (treatment: MLN4924 1 uM, 8 h).

Take ADWLGLKDEDLDLFPASPTREAHR [FBF1]: the protein stability index reads like this: (treatment: DMSO) 4.77 ± 0.21; (treatment: MLN4924 1 uM, 8 h) 4.61 ± 0.12.

For the sequence TVDLELELQIELLRETKRKYESVL [ARFIP2], the protein stability index runs as follows: (treatment: DMSO) 2.71 ± 0.19; (treatment: MLN4924 1 uM, 8 h) 2.91 ± 0.22.

YPHCTGISQQDPESDSQGQGNGLF [ZC2HC1C]: the protein stability index is 3.82 ± 0.23 (treatment: DMSO) and 4.43 ± 0.48 (treatment: MLN4924 1 uM, 8 h).

Sequence RQHIPDTYLCERCQPRNLDKERAV [KMT2E] had a protein stability index (treatment: DMSO) of 2.81 ± 0.47 and a protein stability index (treatment: MLN4924 1 uM, 8 h) of 3.35 ± 0.15.

EMTPEKFSVLMEKLCKKGLAATTS [FANCE]: the protein stability index turned out to be 2.75 ± 0.57 (treatment: DMSO) and 2.88 ± 0.36 (treatment: MLN4924 1 uM, 8 h).

Take FNIFDWLGRSLTAVFMWPGKDSRW [SLC29A1]: the protein stability index is 2.45 ± 0.79 (treatment: DMSO) and 2.63 ± 0.5 (treatment: MLN4924 1 uM, 8 h).

The sequence SYLMLVTVMMWPLAVYHRLWDRAY [RETREG3] gave a protein stability index (treatment: DMSO) of 3.62 ± 0.18 and a protein stability index (treatment: MLN4924 1 uM, 8 h) of 2.62 ± 0.6.

Take RREEEERRRIEEERLRLEQQKQQI [ACBD3]: the protein stability index by setting is: (treatment: DMSO) 5.35 ± 0.19; (treatment: MLN4924 1 uM, 8 h) 5.05 ± 0.41.

On to NQILMEKYLKLQDTCRTQLVWLVR [INTS3], for which the protein stability index by setting is: (treatment: DMSO) 2.02 ± 0.39; (treatment: MLN4924 1 uM, 8 h) 2.38 ± 0.31.

Regarding YLSKTYCVDATRETNRLGRLINHS [KMT5A], the protein stability index reads like this: (treatment: DMSO) 2.35 ± 0.046; (treatment: MLN4924 1 uM, 8 h) 2.62 ± 0.25.

For the sequence IIDSSLEDITYVLKPTFTKQQIAN [USP39], the protein stability index reads like this: (treatment: DMSO) 2.69 ± 0.26; (treatment: MLN4924 1 uM, 8 h) 2.8 ± 0.24.

Regarding GPWQLNVFVCRVSAVLFYVNMYVS [P2RY14], the protein stability index reads like this: (treatment: DMSO) 2.77 ± 0.36; (treatment: MLN4924 1 uM, 8 h) 2.72 ± 0.79.

For EYQLFEELGKGAFSVVRRCMKIPT [CAMK2D], the protein stability index is 2.07 ± 0.27 (treatment: DMSO) and 2.2 ± 0.54 (treatment: MLN4924 1 uM, 8 h).

ISVEGINHDIRTANDGDYWRLLNP [CPXM2] registered a protein stability index (treatment: DMSO) of 2.64 ± 0.44 and a protein stability index (treatment: MLN4924 1 uM, 8 h) of 2.7 ± 0.44.

As to AVADSIPQVLADLGSFESPANSET [PCDHGA10], the protein stability index runs as follows: (treatment: DMSO) 5.07 ± 0.54; (treatment: MLN4924 1 uM, 8 h) 5.35 ± 0.2.

On to LRGSYNSLHDGSDGLDGISVGSYL [LURAP1L], for which the protein stability index runs as follows: (treatment: DMSO) 3.08 ± 0.24; (treatment: MLN4924 1 uM, 8 h) 3.1 ± 0.15.

As to AIVQQVPAPSRMQMPQGNPLLLSH [SNX8], the protein stability index turned out to be 2.72 ± 0.38 (treatment: DMSO) and 2.7 ± 0.31 (treatment: MLN4924 1 uM, 8 h).

Take KKEQRRLGIPKNPWLWSEQQVCQW [ETS2]: the protein stability index is, setting by setting: (treatment: DMSO) 2.12 ± 0.18; (treatment: MLN4924 1 uM, 8 h) 2.43 ± 0.43.

For the sequence PVVKALFGASAAGGLSPVTNLTVT [CDC25A], the protein stability index was 2.61 ± 0.24 (treatment: DMSO) and 2.65 ± 0.2 (treatment: MLN4924 1 uM, 8 h).

On to IFSVLNSDDAAAPALETQPQGDEE [SMOC2], for which the protein stability index reads like this: (treatment: DMSO) 5.22 ± 0.23; (treatment: MLN4924 1 uM, 8 h) 5.29 ± 0.44.

For the sequence DDSSSESGSGNGSSTLNPSTSSST [NOL4L], the protein stability index is, setting by setting: (treatment: DMSO) 5.57 ± 0.31; (treatment: MLN4924 1 uM, 8 h) 5.49 ± 0.2.

In the case of GGYTPDLKMSYSRGLIPVKRGPSS [RBMY1A1], the protein stability index (treatment: DMSO) is 3.9 ± 0.14 and the protein stability index (treatment: MLN4924 1 uM, 8 h) stood at 3.8 ± 0.28.

As for RQYRSIEVLIGAGYSTPADIWSTA [SRPK2], the protein stability index is, setting by setting: (treatment: DMSO) 1.9 ± 0.37; (treatment: MLN4924 1 uM, 8 h) 2 ± 0.44.

Regarding DGHRPEWTFYPRFSSNIHTYHVGK [SPATS1], the protein stability index is 2.96 ± 0.077 (treatment: DMSO) and 3.01 ± 0.21 (treatment: MLN4924 1 uM, 8 h).
